Assay results as given in the nanobody polyreactivity screen of Harvey et al. (2022).

Assay: yeast display, Sf9 membrane polyspecificity reagent, FACS + sequencing; frameworks hold sequencing errors
Outline: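 Galactose induction of a Saccharomyces cerevisiae BJ5465 synthetic nanobody display library ran 36–48 hours. The cells were then stained for 1 hour at 4 °C with 10% biotinylated, detergent-solubilized Sf9 membrane reagent, pulled down on streptavidin microbeads and FACS-sorted into low and high (top ~1%) gates on expression and reagent-binding fluorescence. Labels for polyreactivity follow the gate of origin.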

| Sequence | polyreactivity (PSR sort gate) |
| --- | --- |
| QVQLVESGGGLVQAGGSLRLSCAASGRIFVVNAMGWYRQAPGKERELVATITRSGGITYYADSVKGRFTISRDNAKNTVYLQMNSLNPEDTAVYYCNADVLFYTYYTRGRFDFDYWGQGTQVTVSS | low polyreactivity |
| QVQLVESGGGLVQAGGSLRLSCAASGRIFVVYAMGWYRQAPGKERELVASISRGGRTYYADSVKGRFTISRDNAKNTVYLQMNSLKPEDTAVYDCAVVVYLKNRDLFDYWGQGTQVTVSS | low polyreactivity |
| QVQLVESGGGLVQAGGSLRLSCAASGRIFVYNAMGWYIQAPGKERELVAAISWSTGRTNYADSVKGRFTISRDNAKNTVYLQMNSLKPDDTAVYYCAAEWAWEYYSFWSEYDYWGQGTQVTVSS | high polyreactivity |
| QVQLVESGGGLVQAGGSLRLSCAASGRIFVYNAMGWYLQAPGKERELVANIDYSGGSTYYADSVKGRFTISRDNAKNTVYLQMNSLKPEDTAVYYCAADGGSTAFDYWGHGTQVTVSS | low polyreactivity |
| QVQLVESGGGLVQAGGSLRLSCAASGRIFVYNAMGWYRQAPGKEREFVAAISWDGASTYYADSVKGRFTISRDNAKNTVYLQMNSLKPEDTAVYYCAASYRRKLNYDYWGQGTQVTVSS | low polyreactivity |
| QVQLVESGGGLVQAGGSLRLSCAASGRIFVYNDMGWYRQAPGKERELVAAISSVGTTYYADSVKGRFTISRDNAKNTVYLQMNSLKPEDTAVYYCAVTRYHSPPRYYYWGQGTQVTVSS | low polyreactivity |
| QVQLVESGGGLVQAGGSLRLSCAASGRIFVYNTMGWYRQAPGKERELVAVISIGGSTKYADSVKGRFTISRDNAKNTVYLQMNSLKPEDTAVYYCNTDLAGLVYIAVDYWGQGTQVTVSS | low polyreactivity |
| QVQLVESGGGLVQAGGSLRLSCAASGRIFVYNVMGWYRQAPGKERELVAAISWGTGSTYADSVKGRFTISRDNAKNTVYLQMHSLKPEDTAVYYCAADSFIPPYDHWGQGTQVTVSS | low polyreactivity |
| QVQLVESGGGLVQAGGSLRLSCAASGRIFVYNVMGWYRQAPGKERELVAAISWGTGSTYADSVKGRFTISRDNAKNTVYLQMNSLKPEDTAVYYCAAPSPRSRAYTYRGDYWGQGTQVTVSS | low polyreactivity |
| QVQLVESGGGLVQAGGSLRLSCAASGRIFVYYAMGWYRQAPGKERELVAAIRWTGGSTYYADSVKGRFTISRDNAKNTVYLQMNSLKPEDTAVYYCATVNRYGHFNYWGQGTQVTVSS | high polyreactivity |
| QVQLVESGGGLVQAGGSLRLSCAASGRIFVYYAMGWYSQAPGKERELVASISYSGASTYYADSVKGRFTISRDNAKNTVYLQMNSLKPEDTAVYYCNTDGDDFFHVIYDYWGQGTQVTVSS | low polyreactivity |
| QVQLVESGGGLVQAGGSLRLSCAASGRIFWDNAMGWYRQAPGKERELVAAIDYRGGNTNYADSVKGRFTISRDNAKNTVYFQMNSLKPEDTAVYYCNAEWAVRYPGYDYWGQGSQVTVSS | low polyreactivity |
| QVQLVESGGGLVQAGGSLRLSCAASGRIFWDYGMGWYRQAPGKERELVAVITWGGGSTYYADSVKGRFTISRDNAKNTVYFQMNSLKPEDTAVYYCAKEYHYYYWGQGTQVTVSS | low polyreactivity |
| QVQLVESGGGLVQAGGSLRLSCAASGRIFWEYAMGGYRQAPGKERELVAAITWRVGSTYYADSVKGRFTISRDYAKNTVYLQMNSLKPEDTAVFYCAAARYLSIYNYWGHGTQVTVSS | low polyreactivity |
| QVQLVESGGGLVQAGGSLRLSCAASGRIFWGNAMGWYRQAPGKERELVAAITRSGGSTYYADSVKGRFTISRDNAKNTVYLQMNSLKPEDTAVYYCAARRNYINFRYTLDYYYWGQGTQVTVSS | high polyreactivity |
| QVQLVESGGGLVQAGGSLRLSCAASGRIFWGYAMGWYRQAPGKERELVAAITSGGSTYYADSVKGRFTFSRDNAKNTVYLQMNSLKPEDTAVYYCAAYYVLKLRYGHRYYYWGQGTQVTVSS | high polyreactivity |
| QVQLVESGGGLVQAGGSLRLSCAASGRIFWGYAMGWYRQAPGKERELVAGIRTSGGTTYYADSVKGRFTISRDNAKNTVYLQMNSLKPEDTAVYYCAVVQYTVYNSLYDYWGQGTQVTVSS | low polyreactivity |
| QVQLVESGGGLVQAGGSLRLSCAASGRIFWGYDMGWYRQAPGKEREFVAAISSGGGRKYYADSVKGRFTISRDNAKNTVYLQMNSLKPEDTAVYYCNAELNWYYYIHLDYWGQGTQVTVSS | low polyreactivity |
| QVQLVESGGGLVQAGGSLRLSCAASGRIFWINAMGWYRQAPGKERELVATISSGSTSYADSVKGRFTISRDNAKNTVYLQMNSLKPEDTAVYYCAADFVFRWYSYTGRWYSSYDYWGQGTQVTVSS | low polyreactivity |
| QVQLVESGGGLVQAGGSLRLSCAASGRIFWPNTMGWYRQAPGKERELVATITSTGTRTYYADSVKGRFTISRDNAKNTVYLQMNSLNPEDTAVYYCNARGYYRPDRPTRRNRFDYWGQGTQVTVSS | high polyreactivity |
| QVQLVESGGGLVQAGGSLRLSCAASGRIFWQYAMGWYRQAPGKERELVAAISRSGGSTYYADSVKGRFTISRDNAKNTVYLQMKCLTPEDTAVYYCAARKASGVPGSAGRPEYYYWGQGTQVTVSS | high polyreactivity |
| QVQLVESGGGLVQAGGSLRLSCAASGRIFWRYAMGWYRQAPGQERELVAAISRGGGRTYYADSVKGRFTSSRDNAKNTVYLQMNSLKPEDTAVYYCAARSTQGRFENWGQGTQVTVSS | high polyreactivity |

| Sequence | polyreactivity (PSR sort gate) |
| --- | --- |
| QVQLVESGGGLVQAGGSLRLSCAASGRIFWTNAMGWYRQAPGKERELVAGITWRGGSTYYADSVKGRFTISRDNAKNTVYLQMNSLKPEDTAVYYCATRQGWYSGFDYWGQGTQVTVSS | high polyreactivity |
| QVQLVESGGGLVQAGGSLRLSCAASGRIFWVYAMGWYRQAPGKERELVAAISSTGDGTYYADSVKGRFTISRDNAKNTVYLQMNSLKPVDTAVYYCAADFRVARSPLSGGSDYWGQGTQVTVSS | low polyreactivity |
| QVQLVESGGGLVQAGGSLRLSCAASGRIFWVYAMGWYRQAPGKERELVAAISTRGGSTYYADSVKGRFTISRDNAKNRVYLQKNRLKPDDTAVYYCAADYDDKYDYWGQGTQVTVSS | low polyreactivity |
| QVQLVESGGGLVQAGGSLRLSCAASGRIFWWNTMGWYRQAPGKERELVASITGSGGRTSYADSVKGRFTISRDNAKNTVYLQMNSLKPEDTAVYYCAKEHVSKWSYPYYYWGQGTQVTVSS | high polyreactivity |
| QVQLVESGGGLVQAGGSLRLSCAASGRIFWYYAMGWYRQAPGKERELVAAITRSGASTYYADSVKGRFTISRDNAKNTVYLQMNSLKPEDTAVYYCAARGRWNVPARRDYWGQGTQVTVSS | high polyreactivity |
| QVQLVESGGGLVQAGGSLRLSCAASGRIFWYYAMGWYRQAPGKEWELVARISSSGGSTYYADSVKGRFTISRDNAKNTVYLQMNSLKPEDTAVYYCAKERYSGSSRYPMDYWGQGTQVTVSS | high polyreactivity |
| QVQLVESGGGLVQAGGSLRLSCAASGRIFWYYDMGWYRPAPGKERELVAAISQRGGSTYYADSVKGRFTISRDNAKNTVYLQMNSLKPEDTAVYYCAAYSRYLGPTHHIKYDYWGQGTQVTVSS | high polyreactivity |
| QVQLVESGGGLVQAGGSLRLSCAASGRIFYANAMGWYRQAPGKEWEFVASITYGGGSTYYADSVKGRFTISRDNAKNTVYLQMNSLKPEDTAVYYCAAGYYAQYEDYIRYDYWGQGTQVTVSS | low polyreactivity |
| QVQLVESGGGLVQAGGSLRLSCAASGRIFYAYALGWYRQATGIERELVAAISRRGGSTYYADSVKGRFTISRDNAKNTVYLQMNSLKPEDTAVYYCAADRQFSYVYYIDPTAYEYCGQGTQVTVSS | high polyreactivity |
| QVQLVESGGGLVQAGGSLRLSCAASGRIFYAYAMGWYRQAPGKEREFVAAISWGGGSTNYADSVKGRFTISRDNAKNTVYLQMNSLKPEDTAVYYCATGFYYYLTKTIPYEYEYWGQGTQVTVSS | low polyreactivity |
| QVQLVESGGGLVQAGGSLRLSCAASGRIFYAYAMGWYRQAPGKERELVAAISYIAGITYYADSVKGRFTISRDNAKNTVYLQMNSLIPEDTAVYYCAADDMVTGPLDFWGQGTQVTVSS | low polyreactivity |
| QVQLVESGGGLVQAGGSLRLSCAASGRIFYAYAMGWYRQAPGKERELVAGITYSGSSTYYADSVKGRFTISRDNAKNTVYLQMNSLKPEDTAVYYCAADLTRVLRYNYWGQGTQVSVSS | low polyreactivity |
| QVQLVESGGGLVQAGGSLRLSCAASGRIFYAYAMGWYRQAPGKEREMVAAISKGGGSTYYADSVKGRFTISRDNAKNSVYLQMNSLKPEDTAVYYCNAQQYPYHIKYDYWGQGSQVTVSS | low polyreactivity |
| QVQLVESGGGLVQAGGSLRLSCAASGRIFYAYAMGWYRQEPGKERELVASISGSGGSTYYADSVKGRFTISRDNAKNTVYLQMNRLKPEDTAVYYCAKRYPFYSSGLSTYNYWGQGTQVTVSS | high polyreactivity |
| QVQLVESGGGLVQAGGSLRLSCAASGRIFYDNVMGWYRQAPGKERDLVAAISRSGGDTYYADSVKVRFTISRDNAKNTVYLQMNSLKPEDTAVYYCAADIYAFSGLYYYWGQGTQVTVSS | high polyreactivity |
| QVQLVESGGGLVQAGGSLRLSCAASGRIFYDYAMGGSRQAPGKERELVAAISKGGGSTYYADSVKGRFTISRDNAKNTVYLQMYSLKPEDTAVYYCAASSSLTTDTLYDYWGQGTQVTVSS | low polyreactivity |
| QVQLVESGGGLVQAGGSLRLSCAASGRIFYDYAMGWYRQAPGKEWELVAAISGSGGSTYYADSVKGRFTISRDNAKNTVYLQMNSLKPEDTAVYYCNRYTTRYYPGGDYWGQGTQVTVSS | high polyreactivity |
| QVQLVESGGGLVQAGGSLRLSCAASGRIFYDYAMGWYRQAPGKQREFVAAIRWRGGSTYYADSVKGRFTISRDNAMNTVYLQMNSLKPEDTAVYYCATKSYYKFGYWGQGSQVTVSS | high polyreactivity |
| QVQLVESGGGLVQAGGSLRLSCAASGRIFYDYTMGWYRQEPGKERELVAAINSGGGSTYYADSVKGRFTISRDNAKNTVYLQMNSLKPEVSAVYYCNADGQWNIWEYDYWGQGTQVTVSS | high polyreactivity |
| QVQLVESGGGLVQAGGSLRLSCAASGRIFYEYAMGWYRQAPGKERELVAISTSGGNTYYADSVKGRFTISRDNAKNTVYLQMNSLKPEVTAVYYCAARLQYYPYYYWGQGTQVTVSS | high polyreactivity |
| QVQLVESGGGLVQAGGSLRLSCAASGRIFYFNAMGWYRQAPGKEWELVAVINSSGSTDYADSVKGRFTISRDNAKNTVYLQMNSLKPEDTAVYYCAAEVTPSGYGYWGQGTQVTVSS | low polyreactivity |
